In the supplement of paper PMC10567573:

B1: ZNF511 (parent)
chain: EPLPVERDPAAGAAPFRFVARPVR
B2: KRT71 (parent)
chain: FGSRSLYSLGGVRSLNVASGSGKS

Variants of: B1
Assay: protein stability index of a GFP-peptide fusion (GPS, HEK-293T) (PSI 1-6); higher = more stable
Details: c terminus: a fixed tail appended
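Further: lentivirally expressed fusions sorted by FACS into six bins by GFP to DsRed ratio, PSI derived from sequencing read proportions per bin multiplied by bin number.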

Protein stability index: each site, then its substitutions
F18: Q 4.79, Y 4.32, G 5.14, L 4.49, W 4.43, A 4.83, V 4.6
L3: S 3.09, G 2.23, D 2.1, F 2.01, H 2.56, N 2.76, R 3.45
G12: L 2.4, F 2.01, I 1.46, C 2.79, Y 1.96
P22: V 2.6, Q 2.02, I 3.15
R24: L 1.62, M 2.37, I 2.33
V19: M 4.1, D 4.67, F 3.88
V23: W 2.28, G 2.25, L 2.73, Q 2.95, H 2.69
A10: M 2.11, R 2.55
V5: C 2.39, R 2.85
R7: H 2.57, L 2.82, Y 1.75, P 2.22
R21: E 2.35, N 1.59, H 2.18, G 2.03
P2: C 2.08, S 2.84, Y 2.45, N 1.99, W 1.8, M 2.3, V 2.03, L 2.37, T 2.1, G 2.75
A13: R 2.34, W 1.77, F 1.94
R17: F 2.56, A 2.96, G 4.86, Y 2.98, M 3.88
E1: N 2, C 2.64, A 2.57
E6: L 2.98, Y 2.03, K 1.99, M 2.52, H 2.44, I 2.34
F16: Y 3.82, T 4.52, Q 5.34
P15: E 3.04, R 3.78, F 3.23, K 4.09, G 3.84, C 3.77, T 3.94
A11: Y 1.88, K 2.34, C 2.18
A14: W 2.47, T 2.29
A20: H 2.81, E 3.03, M 2.49, C 1.61
P9: G 1.96, V 1.92, Y 2.12, A 1.72
D8: T 2.99, G 1.91, Q 2.12, I 2.91, N 3.17

Variants of: B2
Assay: as above
Details: c terminus: a fixed tail appended

Protein stability index: each site, then its substitutions
G2: Q 3.09, H 1.32, M 1.99, I 1.78, Y 2.08, E 3.3, K 3.75, C 3.47, V 3.98, N 2.58, P 2.07, F 2.33, W 1.8, S 1.99, R 3.5, L 2.45, D 3.02, A 2.02, T 1.32
S3: Y 2.7, D 1.43, W 1.59, F 2.22, C 1.56, T 1.95, E 2.22, I 2.37, A 2.19, P 2.71, K 1.78, N 1.26, V 2.23, M 2.21, L 2.47, H 2.06, Q 2.09, R 1.97, G 1.84
F1: A 4.02, R 3.55, L 3.43, N 3.85, E 3.83, M 3.75, S 4.56, W 2.16, V 3.81, H 3.98, K 4.06, Q 4.4, Y 1.64, T 3.59, D 4.03, C 2.87, I 3.33, P 3.92, G 3.44
R4: I 1.7, G 2.56, E 2.44, A 2.71, L 1.75, K 2.14, D 2.44, H 2.15, C 2.35, F 1.58
